Results as given in patent US20110144312A1 (Kyowa Kirin, published 2011).
Where a chain is given by its changes, count along the chain named.

T1: Biotin-SGSTLDLYHSNGYRARVRAVDG-NH2 (human, N-terminal biotin, C-terminal amide (-NH2))
T1 peptide: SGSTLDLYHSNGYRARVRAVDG

T2: Biotin-SGSTYSIFSHFREYEIAIRKV-NH2 (human, N-terminal biotin, C-terminal amide (-NH2))
T2 peptide: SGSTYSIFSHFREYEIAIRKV

T3: cynomolgus macaque IL-10Rα on PBMC (cynomolgus macaque, UniProt Q13651 22-578 (human entry))
T3 construct: Full-length entry cloned from cynomolgus T cells; endogenous on primary PBMC in the assays; also called IL-10Rα on the surface of cynomolgus lymphocytes and monocytes
T3 chain: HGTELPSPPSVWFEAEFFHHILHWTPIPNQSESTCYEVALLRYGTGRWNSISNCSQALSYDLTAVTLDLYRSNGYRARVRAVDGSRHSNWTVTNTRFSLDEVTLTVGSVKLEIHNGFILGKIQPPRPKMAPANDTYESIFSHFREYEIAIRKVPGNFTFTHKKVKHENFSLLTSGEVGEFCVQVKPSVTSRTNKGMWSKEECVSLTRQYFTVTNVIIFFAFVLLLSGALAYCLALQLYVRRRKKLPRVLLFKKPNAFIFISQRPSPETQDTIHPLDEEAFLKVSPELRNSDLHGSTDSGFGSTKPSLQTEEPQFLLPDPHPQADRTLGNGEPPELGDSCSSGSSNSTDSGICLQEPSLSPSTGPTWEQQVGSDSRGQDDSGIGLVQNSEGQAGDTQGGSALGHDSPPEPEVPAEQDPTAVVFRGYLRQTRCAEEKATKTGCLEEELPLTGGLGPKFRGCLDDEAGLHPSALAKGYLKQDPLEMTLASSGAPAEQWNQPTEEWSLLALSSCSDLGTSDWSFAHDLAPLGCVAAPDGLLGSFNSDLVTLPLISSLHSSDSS

B1: 136C5 (antibody, V domains shown)
VH: EVQLVESGGGLVQPGGSLRLSCAASGFTFSSYSMNWVRQAPGKGLEWVSYISTGSSTIYYADSVKGRFTISRDNAKNSLYLQMNSLRDEDTAVYYCARENYYGSGSYEDYFDYWGQGTLVTVSS
VL: EIVLTQSPATLSLSPGERATLSCRASQSVSSYLAWYQQKPGQAPRLLIYDASNRATGIPARFSGSGSGTDFTLTISSLEPEDFAVYYCQQRSNWPIFTFGPGTKVDIK
notes: Hybridoma antibody, human IgG1, kappa light chain; also called human anti-human IL-10Rα monoclonal antibody 136C5; hybridoma deposit PTA-9131
B2: 136C8 (antibody, V domains shown)
VH: B1 VH with G54R
VL: B1 VL
notes: Hybridoma antibody, human IgG2, kappa light chain; also called human anti-human IL-10Rα monoclonal antibody 136C8; hybridoma deposit PTA-9132

Assays:
[1] = biological target: T4, cynomolgus macaque IL-10Rα extracellular domain fused to the Fc portion of human IgG1 (cynomolgus macaque); test: ELISA, coated cynomolgus IL-10Rα:hFc
T4 construct: The entry includes the signal peptide; also called cynomolgus IL-10Rα:hFc; cyIL-10Rα
Source text: Titration of anti-IL-10Rα antibodies binding to coated chimp or cynomolgus IL-10Rα:hFc. Binding was detected with anti-human kappa-HRP, anti-mouse IgG-HRP, or anti-rat IgG-HRP. Different anti-rat-IgG HRP and anti-mouse IgG antibodies were used to generate the data in panels A and B. The nature of these secondary antibodies can affect the results and lead to different maximum binding (BMAX). The BMAX from these studies are described in Table 5.
IL-10Rα Specific Antibody Detection ELISA: Antibody titers, specificity, and production by hybridomas were determined by ELISA. In brief, 96 well flat bottom Maxisorb plates were coated with 50 μl of hIL-10Rα (R&D Systems, Minneapolis, Minn.) at 1 μg/ml in carbonate buffer (pH 9.4) overnight at 4° C. or at 37° C. for 1 hour. After washing three times with PBS/0.05% Tween 20, plates were blocked with Superblock blocking buffer in TBS (Pierce) at room temperature for 30 minutes. The serum, supernatant, or purified antibody was diluted in blocking buffer, added to the wells, and the plates were incubated for 1 hour at room temperature. The plates were washed 3 times with PBS/0.05% Tween 20 and peroxidase-conjugated goat anti-human IgG (Fcγ specific), anti-rat IgG, or anti-mouse IgG detection antibodies (Jackson Immunoresearch) were added at a dilution of 1:5000. Multiple lots of anti-rat and anti-mouse IgG antibodies were used in different assays. […] Following a 1 hour incubation at room temperature, the plates were washed and the TMB (Sigma) substrate was added and incubated at room temperature for 5 to 10 minutes. The reaction was stopped with H₂SO₄ (LabChem) and the optical density was measured at 450 nm by a microplate reader. A second ELISA protocol using soluble human, chimp and cynomolgus IL-10Rα:hFc recombinant proteins as the coating antigens was also employed. In this assay, binding of specific human IgG were detected with a peroxidase labeled sheep anti-human kappa antibody (The Binding Site, Birmingham, UK).

[2] = biological target: T1, Biotin-SGSTLDLYHSNGYRARVRAVDG-NH2; test: ELISA, biotinylated peptide on Extravidin or Neutravidin plates
Protocol: (§1) Multiple ELISA methods were also employed to detect binding of anti-IL-10Rα antibodies to IL-10Rα, derived peptides. The biotinylated IL-10Rα derived peptides (SEQ ID NO. 86-87) were diluted to 1 μg/ml in TBS/BSA/0.05% Tween 20 and added to Extravidin or Neutravidin pre-coated ELISA plates (Pierce) for 2 hours at room temperature. After washing three times with TBS/BSA/0.05% Tween 20. The purified anti-human IL-10Rα antibodies were diluted in TBS/BSA/0.05% Tween 20 and added to the wells. The plates were incubated for 1 hour at room temperature. The plates were washed 3 times with TBS/0.05% Tween 20 and peroxidase-conjugated goat anti-human IgG (Fcγ specific), anti-rat IgG, or anti-mouse IgG detection antibodies (Jackson Immunoresearch) were added. Following 1 hour incubation at room temperature, the plates were washed and the TMB (Sigma) substrate was added and incubated at room temperature for 5 to 10 minutes. The reaction was stopped with H₂SO₄ (LabChem) and the optical density was measured at 450 nm using a microplate reader. An OD reading above background wells with no primary antibody is indicative of antibody binding to the peptides. […] The antibodies only bound the positive control biotinylated recombinant human IL-10Rα:hFc protein. […] Antibody binding was detected with species-specific anti-IgG-HRP secondary antibodies. […]

[3] = biological target: T2, Biotin-SGSTYSIFSHFREYEIAIRKV-NH2; test: as above
Protocol: as §1

[4] = biological target: T3, cynomolgus macaque IL-10Rα on PBMC; test: flow cytometry on cynomolgus macaque PBMC, lymphocyte gate; competitor: recombinant human IL-10Rα [C]
[5] = biological target: T5, SNP variant S159G of human IL-10Rα extracellular domain fused to the Fc portion of human IgG1 (human); test: ELISA, coated SNP variant Fc fusion S159G [D]
T5 construct: The entry already holds the change and includes the signal peptide

[6] = biological target: T6, SNP variant V113I of human IL-10Rα extracellular domain fused to the Fc portion of human IgG1 (human); test: ELISA, coated SNP variant Fc fusion V113I [C]
T6 construct: The entry already holds the change and includes the signal peptide; also called V1131

[7] = biological target: T7, SNP variant V233M of human IL-10Rα extracellular domain fused to the Fc portion of human IgG1 (human); test: ELISA, coated SNP variant Fc fusion V233M [F]
T7 construct: The entry already holds the change and includes the signal peptide

Row | Binder | BMAX [1] | binding result [2] | binding result [3] | binding result [4] | binding result [5] | binding result [6] | binding result [7]
1 | B1 | 1.64 OD | no binding (tested: 1 µg/ml peptide) | no binding (tested: 1 µg/ml peptide) | binds | – | – | –
2 | B2 | 1.66 OD | – | – | binds | binds | binds | binds
